Where two headings read alike, the source gives them in different places.
How the values were obtained:
[1] = test system: MDA-MB231 tumor xenografts; assay: In vivo fluorescence imaging and biodistribution, MDA-MB231 xenografts
Description: (§1) In vivo fluorescence imaging and biodistribution. For the development of subcutaneous tumor xenografts, MDA-MB231, OVCAR-3 and HEC-1B 5×10^6 cells in 0.2 ml sterile PBS were injected subcutaneously in the right hind flank of the female nu/nu mice. Tumor imaging was initiated once the tumor volume reached between 200 mm^3 to 300 mm^3. Each tumor-bearing mice was intravenously injected (via tail vein) with the 10 nano moles of fluorescence dye conjugate either in the presence or absence of a 100-fold excess of the unlabeled conjugate. Animals were euthanized two hours post injection using CO2 and the images were acquired using Caliper IVIS Luminal II. After performing the whole body image, the organs of interest were harvested and imaged to inspect the accumulation of the fluorescence in these organs. The image acquisition parameters were as follows: i) lamp level-high, ii) excitation-745 nm, iii) emission-ICG, iv) binning (M) 4M, (v) f-stop-4, (vi) FOV-12.5, (vii) acquisition time, 1 s. All final conjugates were purified by HPLC prior to its use in in-vitro and in vivo studies.
To determine the efficiency of the conjugates to target the receptor positive tumor in vivo female nu/nu athymic nude mice were subcutaneously implanted with either MCF7, MDA-MB231, OVCAR3 or HEC-1B. Once the tumor reached an appropriate volume the mice were injected intravenously with the dye conjugates (10 nmoles) either in the presence or absence of the excess of the unlabeled targeting molecule. Mice were imaged 2 h post injection to investigate the accumulation of the dye conjugates in tumor and other vital organs.
Mice were treated intravenously with the dye conjugate either in the presence or absence of 100-fold excess of the unlabeled conjugates. […] All the images were acquired 2 h post injection. List of organs from top to bottom: Tumor, heart, lungs, pancreas, spleen, muscle, skin, small intestine, large intestine, stomach, liver, and kidney.
Mice were treated intravenously with the dye conjugate either in the presence or absence of 100-fold excess of the unlabeled conjugates. […] All the images were acquired 2 h post injection. List of organs from top to bottom: Tumor, brain, heart, lungs, stomach, small intestine, large intestine, muscle, pancreas, spleen, liver, and kidney.
Time course study. The effectiveness of JL-L3-S0456 to accumulate in the receptor-positive tumors were further inspected by injection the dye conjugate in ovarian cancer and endometrial xenografts. […] To investigate the retention time of the dye conjugate in the tumor a time-course study was performed. Mice were injected with 10 nmoles of the dye conjugates and imaged at 2 h, 8 h, and 12 h.

HEC-1B tumor xenografts = conditions: endometrial xenografts, 2 h post injection
Description: as §1
(§2) To determine the efficiency of the conjugates to target the receptor positive tumor in vivo female nu/nu athymic nude mice were subcutaneously implanted with either MCF7, MDA-MB231, OVCAR3 or HEC-1B. […]

OVCAR3 tumor xenografts = conditions: ovarian cancer xenografts, 2 h post injection
Description: as §1, §2

MDA-MB231 cells = assay type: cell-based, human; conditions: 2 h exposure + 66 h
Description: (§3) In vitro determination of cell viability. MDA-MB231 and SKVO3 cells were seeded at a concentration of 10,000 cells per well on a 24 well plate and allowed to grow in monolayers. […] After incubating for 2 h at 37° C., cells were rinsed three times with fresh medium and then incubated in 0.5 ml fresh medium for an additional 66 h at 37° C. Sent medium was then replaced with 0.5 ml of medium containing ^3H-thymidine and incubated for additional 4 h. Cells were then again washed three times with the fresh medium and then incubated with 0.5 ml of 2.5% trichloroacetic acid for 10 min at room temperature. After removing the trichloroacetic acid, cells were dissolved in 0.25 N NaOH. Cell viability was determined by counting the incorporation of ^3H-thymidine in cells using scintillation counter (Packard, Packard Instrument Company). The IC50 value was derived from a plot of the percent of ^3H-thymidine incorporation versus log concentration using Graph Pad Prism 4.
(§4) In vitro cytotoxicity of tubulysin B hydrazide conjugate: To inspect the killing efficiency of the therapeutic conjugate, MDA-MB231 and SKOV3 cancer cells were incubated with various concentrations of JL-L3-TubBH either in the presence or absence of excess JL-L3, for 2 h at 37° C. After washing off the excess conjugate, the cells were incubated in fresh media for an additional 66 h followed by incubation with media containing ^3H-thymidine to assess cell viability. Radioactivity was counted using PerkinElmer's scintillation counter. The same procedure was repeated after exposing the cells to the free tubulysin B hydrazide.

SKOV3 cells = assay type: cell-based, human; conditions: receptor negative cell line, 2 h exposure + 66 h
Description: as §3, §4

MDA-MB-231 tumors = assay: In vivo efficacy of tubulysin B hydrazide conjugate, LHRH-R positive tumors; parameters: species or system mice
Description: (§5) Tumor model and therapy: 5-6 weeks old female nu/nu athymic nude mice were subcutaneously injected with 5.0×10^6 breast cancer cells MDA-MB231 and ovarian cancer cells SKVO3 into their shoulders. Tumors were measured in two perpendicular directions 3 times per week with Vernier calipers, and their volumes were calculated as 0.5×L×W^2, where L is the longest axis (in millimeters), and W is the axis perpendicular to L (in millimeters). Treatment was initiated once the tumor volume reached ˜100 mm^3. Dosing solutions were prepared in sterile saline and injected intravenously. […] Mice were administered with the test agents 3 times per week for 3 weeks and as a measure of gross toxicity mice were simultaneously weighed at each dosing.
In vivo efficacy of tubulysin B hydrazide conjugate: To investigate the efficacy of JL tubulysin conjugate nu/nu athymic nude bearing LHRH-R positive tumors (MDA-MB-231, breast cancer) were randomly divided into three groups: saline control, targeted, and competition and were then treated with test agents 3 days per week for 3 weeks. LHRH-R positive (MDA-MB-231) and negative (SKOV3) cancer cells were s.c implanted in to nu/nu athymic mice and treatment was initiated once the tumor volume reached ˜100 mm^3. Mice were randomized into several groups with 5 mice in each group. […] All the test agents were administered intravenously through tail vein. The mice in control and competition group were euthanized after the last doing whereas the mice in treatment group were continuously monitored for recurrence of tumor and weight loss. […] (FIG. 22A, The dotted vertical line indicates the day of final dosing (day 36)) Without intending to be bound by theory, this further confirmed that the efficacy of targeted tubulysin B hydrazide conjugate is receptor mediated. Moreover, to comprehensively test the anti-tumor efficacy of targeted conjugate (JL-L3-TubBH), mice bearing LHRH-R negative tumors (SKOV3, ovarian cancer) were divided into similar groups as MDA-MB-231 tumor bearing mice and a similar treatment regimen was followed. […] (FIGS. 22B & 22D)
After completion of the treatment the mice in MDA-MB-231 targeted group were monitored and kept on regular chow diet for next five weeks. During this time period the tumor volume and weight was monitored three time a week. (FIG. 23) Mice were treated with the LHRH-R targeted tubulysin B hydrazide conjugate (JR-L3-TubBH) for thrice a week for 3 weeks (n=5). After completion of the study tumor volume and weight of mice was continuously monitored till 75 days post tumor implantation. The dotted vertical line specifies the last day of dosing.

SKOV3 tumors = assay: In vivo efficacy of tubulysin B hydrazide conjugate, LHRH-R negative tumors; parameters: species or system mice; conditions: 2 μmol/kg i.v., 3 times per week for 3 weeks
Description: as §5
In vivo efficacy of tubulysin B hydrazide conjugate: To investigate the efficacy of JL tubulysin conjugate nu/nu athymic nude bearing LHRH-R positive tumors (MDA-MB-231, breast cancer) were randomly divided into three groups: saline control, targeted, and competition and were then treated with test agents 3 days per week for 3 weeks. […] The mice in control and competition group were euthanized after the last doing whereas the mice in treatment group were continuously monitored for recurrence of tumor and weight loss. […]

[2] = 10 nmoles i.v., 2 h post injection
[3] = 2 μmol/kg i.v., 3 times per week for 3 weeks
[4] = monitored five weeks after treatment, till 75 days post tumor implantation

SMILES | Kidney fluorescence [1, 2] | Liver fluorescence [1, 2] | Tumor uptake [1, 2] | Competition of tumor uptake by unlabeled JL-L3 ([1]; 100-fold excess of unlabeled conjugate, 2 h post injection) | Tumor fluorescence intensity at 12 h compared with 2 h post injection ([1]; time course, 10 nmoles, imaged at 2 h, 8 h, 12 h) | Tumor uptake (HEC-1B tumor xenografts) | Tumor uptake (OVCAR3 tumor xenografts) | IC50 (MDA-MB231 cells; 3H-thymidine incorporation, read-out: IC50) [nM] | IC50 (MDA-MB231 cells; excess JL-L3 (100-fold), read-out: IC50 in the presence of an excess of competition ligand) [nM] | IC50 (SKOV3 cells) [nM] | Anti-tumor effect (tumor volume), competition group (MDA-MB-231 tumors; 2 μmol/kg i.v. with 100-fold excess of JL-L3, 3 times per week for 3 weeks) | Anti-tumor effect (tumor volume) (MDA-MB-231 tumors; [3]) | Body weight loss (gross toxicity) (MDA-MB-231 tumors; [3]) | Tumor growth after end of treatment (MDA-MB-231 tumors; [4]) | Weight loss after end of treatment (MDA-MB-231 tumors; [4]) | Body weight loss (gross toxicity) (SKOV3 tumors) | Anti-tumor effect (tumor volume) (SKOV3 tumors; receptor negative tumors)
Cc1c(-c2cccc(CCC(=O)NCCCCCCCC(=O)N[C@H](CCC(=O)NC[C@H](O)[C@@H](O)[C@H](O)[C@H](O)CO)C(=O)N[C@H](CCC(=O)O)C(=O)N[C@H](CCC(=O)NC[C@H](O)[C@@H](O)[C@H](O)[C@H](O)CO)C(=O)N[C@H](CSC3CC(=O)N(CCNC(=O)CCc4ccc(OC5=C(/C=C/C6=[N+](CCCCS(=O)(=O)O)c7ccc(S(=O)(=O)[O-])cc7C6(C)C)CCC/C5=C\C=C5\N(CCCCS(=O)(=O)O)c6ccc(S(=O)(=O)O)cc6C5(C)C)cc4)C3=O)C(=O)O)c2)c(=O)n(C[C@@H](N)c2ccccc2)c(=O)n1Cc1c(F)cccc1F (some centres unmarked) [JL-L3-S0456] | high fluorescence | none or very minimal fluorescence | accumulated in the breast cancer tumor | able to compete the tumor uptake | only a very slight decrease in the intensity | receptor-mediated uptake | receptor-mediated uptake | – | – | – | – | – | – | – | – | – | –
CCCC(=O)OCN(C(=O)[C@@H](NC(=O)C1CCCCN1C)C(C)CC)[C@H](C[C@@H](OC(C)=O)c1nc(C(=O)N[C@@H](Cc2ccc(O)cc2)C[C@H](C)C(=O)NNC(=O)OCCSSC[C@@H](NC(=O)[C@@H](CCC(=O)NC[C@H](O)[C@@H](O)[C@H](O)[C@H](O)CO)NC(=O)[C@@H](CCC(=O)O)NC(=O)[C@@H](CCC(=O)NC[C@H](O)[C@@H](O)[C@H](O)[C@H](O)CO)NC(=O)CCCCCCCNC(=O)CCc2cccc(-c3c(C)n(Cc4c(F)cccc4F)c(=O)n(C[C@@H](N)c4ccccc4)c3=O)c2)C(=O)O)cs1)C(C)C (some centres unmarked) [JL-L3-TubBH] | – | – | – | – | – | – | – | 26 | 382 | 608 | did not show any decline in tumor growth | complete elimination of the tumor | None of the mice either bearing MDA-MB-231 or SKVO3 experiences significant weight loss | None of the mice showed any indication of tumor growth and weight loss | None of the mice showed any indication of tumor growth and weight loss | None of the mice either bearing MDA-MB-231 or SKVO3 experiences significant weight loss | no reduction in tumor volume

Source: US11883498B2, “Luteinizing hormone-releasing hormone receptor (LHRH-R) conjugates and uses thereof” (priority 2016, dated 2024)
